Patent US20230235004A1 (published 2023)

T1: human MAdCAM expressed on cells (human, UniProt Q13477 19-382)
T1 construct: whole, on cells
T1 sequence (looked up): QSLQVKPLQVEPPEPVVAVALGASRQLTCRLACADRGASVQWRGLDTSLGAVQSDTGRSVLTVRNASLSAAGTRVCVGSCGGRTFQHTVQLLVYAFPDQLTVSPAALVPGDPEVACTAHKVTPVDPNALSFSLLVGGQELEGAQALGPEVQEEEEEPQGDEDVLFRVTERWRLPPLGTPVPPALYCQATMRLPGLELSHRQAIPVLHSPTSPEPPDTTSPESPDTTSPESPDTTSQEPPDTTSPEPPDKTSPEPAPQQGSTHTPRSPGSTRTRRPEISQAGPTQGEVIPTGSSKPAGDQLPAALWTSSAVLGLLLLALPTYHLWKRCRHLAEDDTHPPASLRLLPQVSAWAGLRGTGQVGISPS

T2: mouse MAdCAM expressed on cells (mouse, UniProt Q61826 22-405)
T2 construct: whole, on cells
T2 sequence (looked up): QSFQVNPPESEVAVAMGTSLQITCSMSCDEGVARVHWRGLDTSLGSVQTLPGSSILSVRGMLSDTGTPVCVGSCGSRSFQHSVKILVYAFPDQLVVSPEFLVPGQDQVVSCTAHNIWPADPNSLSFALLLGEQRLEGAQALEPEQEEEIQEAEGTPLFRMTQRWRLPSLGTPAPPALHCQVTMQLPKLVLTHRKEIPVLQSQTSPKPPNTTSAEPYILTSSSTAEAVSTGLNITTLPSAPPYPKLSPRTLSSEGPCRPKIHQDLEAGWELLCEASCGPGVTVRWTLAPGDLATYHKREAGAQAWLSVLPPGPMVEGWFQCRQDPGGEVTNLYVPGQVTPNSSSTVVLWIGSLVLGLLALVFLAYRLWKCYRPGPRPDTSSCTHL


Key:
[1] = biological target: T1, human MAdCAM expressed on cells; assay: cell binding
[2] = biological target: T2, mouse MAdCAM expressed on cells; assay: cell binding

Row | Binder | binding result [1] | binding result [2]
1 | MAdCAM antibody Table 1 clone 49 (scFv) scFv: QVQLVQSGAEVKKPGASVKVSCKASGDTFTGYYIHWVRQAPGQGLEWMGWINPNSGGTNYAQKFQGRVTMTRDTSTSTVYMELSSLRSEDTAVYYCARSGLWLGSYYGMDVWGQGTLVTVSSGGGGSGGGGSGGGGSGGGGSDIQMTQSPSSLSASVGDRVTITCRASQTISIWLAWYQQKPGKAPKLLIYDASTLQSGVPSRFSGSGSGTDFTLTISSLQPEDFATYYCQQYSSYPLTFGQGTKVEIK | binds | no binding
2 | MAdCAM antibody Table 1 clone 50 (scFv) scFv: QVQLVQSGAEVKKPGASVKVSCKASGYTFTSYDINWVRQAPGQGLEWMGWINPNSGTTGYAQKFQGRVTMTRDTSTSTVYMELSSLRSEDTAVYYCARSPYYYYGMDVWGQGTTVTVSSGGGGSGGGGSGGGGSGGGGSDIQMTQSPSSLSASVGDRVTITCRASHFISRWVAWYQQKPGKAPKLLIYAASTLQSGVPSRFSGSGSGTDFTLTISSLQPEDFATYYCQQSYSGISFGPGTKVDIK | binds | no binding
3 | MAdCAM antibody Table 1 clone 51 (scFv) scFv: EVQLLESGGGLVQPGGSLRLSCAASGFTFNNYGMNWVRQAPGKGLEWVSRINSDGSSTSYADSVKGRFTISRDNSKNTLYLQMNSLRAEDTAVYYCARGAYYYYYMDVWGQGTLVTVSSGGGGSGGGGSGGGGSGGGGSEIVMTQSPATLSVSPGERATLSCRASQSVSGSYLAWYQQKPGQAPRLLIYATSSRASGIPARFSGSGSGTEFTLTISSLQSEDFAVYYCQQYYSGLTFGQGTKVEIK | binds | no binding
4 | MAdCAM antibody Table 1 clone 52 (scFv) scFv: EVQLLESGGGLVQPGGSLRLSCAASGFTFSNSDMNWVRQAPGKGLEWVAHIWNDGSQKYYADSVKGRFTISRDNSKNTLYLQMNSLRAEDTAVYYCARDRTDPGYSSAMDVWGQGTTVTVSSGGGGSGGGGSGGGGSGGGGSDIQMTQSPSSLSASVGDRVTITCRASQDIRNYLGWYQQKPGKAPKLLIYDASSLETGVPSRFSGSGSGTDFTLTISSLQPEDFATYYCQQATSLPLTFGGGTKVEIK | binds | no binding
5 | MAdCAM antibody Table 1 clone 53 (scFv) scFv: QVQLVQSGAEVKKPGASVKVSCKASGYTFTSYDINWVRQAPGQGLEWMGWMNPNSGNTGYAQKFQGRVTMTRDTSTSTVYMELSSLRSEDTAVYYCAKDSDYSNLLWDYWGQGTLVTVSSGGGGSGGGGSGGGGSGGGGSDIQMTQSPSSLSASVGDRVTITCRASQDITNDLGWYQQKPGKAPKLLIYQASSLESGVPSRFSGSGSGTDFTLTISSLQPEDFATYYCQQSYTIPLTFGQGTKVEIK | binds | no binding
6 | MAdCAM antibody Table 1 clone 54 (scFv) scFv: EVQLLESGGGLVQPGGSLRLSCAASGFTFGDYAMSWVRQAPGKGLEWVAVVSYDGTNKYYADSVKGRFTISRDNSKNTLYLQMNSLRAEDTAVYYCAKDICSSTSCYFDLWGRGTLVTVSSGGGGSGGGGSGGGGSGGGGSDIQMTQSPSSLSASVGDRVTITCRASQNINNYVNWYQQKPGKAPKLLIYDASNLETGVPSRFSGSGSGTDFTLTISSLQPEDFATYYCQQANSFPPTFGQGTRLEIK | binds | no binding
7 | MAdCAM antibody Table 1 clone 55 (scFv) scFv: QVQLVQSGAEVKKPGASVKVSCKASGYTFTSYYMHWVRQAPGQGLEWMGIIDPSGGSTSYAQKFQGRVTMTRDTSTSTVYMELSSLRSEDTAVYYCAREEWSSGGVGYFDYWGQGTLVTVSSGGGGSGGGGSGGGGSGGGGSDIQMTQSPSSLSASVGDRVTITCRASQGISSYLAWYQQKPGKAPKLLIYATSSLQTGVPSRFSGSGSGTDFTLTISSLQPEDFATYYCQQTYSIPITFGQGTRLEIK | binds | no binding
8 | MAdCAM antibody Table 1 clone 57 (scFv) scFv: QVQLVQSGAEVKKPGASVKVSCKASGYTFTSYYMHWVRQAPGQGLEWMGIINPSGGSTSYAQKFQGRVTMTRDTSTSTVYMELSSLRSEDTAVYYCARDSVAGTGGRYYGMDVWGQGTLVTVSSGGGGSGGGGSGGGGSGGGGSDIQMTQSPSSLSASVGDRVTITCRASQGISNYFAWYQQKPGKAPKLLIYAASSLQGGVPSRFSGSGSGTDFTLTISSLQPEDFATYYCQQSYSLPYTFGQGTKLEIK | binds | no binding
9 | MAdCAM antibody Table 1 clone 58 (scFv) scFv: QVQLVQSGAEVKKPGASVKVSCKASGYTFTGYYMHWVRQAPGQGLEWMGIINPSGGNTKYAQKFQGRVTMTRDTSTSTVYMELSSLRSEDTAVYYCTTADYYYYMDVWGKGTTVTVSSGGGGSGGGGSGGGGSGGGGSDIQMTQSPSSLSASVGDRVTITCRASQGISNYLAWYQQKPGKAPKLLIYAASSLQSGVPSRFSGSGSGTDFTLTISSLQPEDFATYYCQQYYSNADFGQGTKVEIK | binds | no binding
10 | MAdCAM antibody Table 1 clone 3 (scFv) scFv: QVQLVQSGAEVKKPGASVKVSCKASGYPFIGQYLHWVRQAPGQGLEWMGIINPSGGSTSYAQKFQGRVTMTRDTSTSTVYMELSSLRSEDTAVYYCAREGRLSYGMDAWGQGTLVTVSSGGGGSGGGGSGGGGSGGGGSDIQMTQSPSSLSASVGDRVTITCRASQSISSYLAWYQQKPGKAPKLLIYGASTLESGVPSRFSGSGSGTDFTLTISSLQPEDFATYYCQQTWGPPFTFGQGTKLEIK | binds | binds
11 | MAdCAM antibody Table 1 clone 11 (scFv) scFv: QVQLVQSGAEVKKPGASVKVSCKASGYTFTTYYMHWVRQAPGQGLEWMGGFDPEDGETIYAQKFQGRVTMTRDTSTSTVYMELSSLRSEDTAVYYCARHAVAGAVGAGYYYYGMDVWGQGTMVTVSSGGGGSGGGGSGGGGSGGGGSDIQMTQSPSSLSASVGDRVTITCRASESISNWLAWYQQKPGKAPKLLIYAASTLQSGVPSRFSGSGSGTDFTLTISSLQPEDFATYYCQQSYSVPFTFGPGTKVDIK | binds | no binding
12 | MAdCAM antibody Table 1 clone 12 (scFv) scFv: QVQLVQSGAEVKKPGASVKVSCKASGYTFTGYYMHWVRQAPGQGLEWMGWIGPNSGDTNYAQKFQGRVTMTRDTSTSTVYMELSSLRSEDTAVYYCARDLDHNWYFDLWGRGTLVTVSSGGGGSGGGGSGGGGSGGGGSDIVMTQSPLSLPVTPGEPASISCRSSQSLLHSNGYNYLDWYLQKPGQSPQLLIYSSSNRAPGVPDRFSGSGSGTDFTLKISRVEAEDVGVYYCMQALHIPLTFGGGTKVEIK | binds | no binding
13 | MAdCAM antibody Table 1 clone 13 (scFv) scFv: EVQLLESGGGLVQPGGSLRLSCAASGFTFDDYAMHWVRQAPGKGLEWVSYIDASGTTIYYADSVKGRFTISRDNSKNTLYLQMNSLRAEDTAVYYCAKDQAAAGYWYFDLWGRGTLVTVSSGGGGSGGGGSGGGGSGGGGSDIQMTQSPSSLSASVGDRVTITCQASQDISNYLNWYQQKPGKAPKLLIYKASTLESGVPSRFSGSGSGTDFTLTISSLQPEDFATYYCQQSYSTPITFGQGTRLEIK | binds | no binding
14 | MAdCAM antibody Table 1 clone 14 (scFv) scFv: QVQLVQSGAEVKKPGSSVKVSCKASGYTFTDYHIHWVRQAPGQGLEWMGGIVPRSGSTTYAQKFQGRVTITADESTSTAYMELSSLRSEDTAVYYCAKDESSGWYYFDYWGQGTLVTVSSGGGGSGGGGSGGGGSGGGGSDIVMTQSPLSLPVTPGEPASISCRSSQSLLHSNGYNYLDWYLQKPGQSPQLLIYSAYNRASGVPDRFSGSGSGTDFTLKISRVEAEDVGVYYCMQALQTPLTFGQGTKVEIK | binds | no binding
15 | MAdCAM antibody Table 1 clone 15 (scFv) scFv: QVQLVQSGAEVKKPGSSVKVSCKASGYTFTNYYMHWVRQAPGQGLEWMGGIIPIVDRVKYAQKFQGRVTITADESTSTAYMELSSLRSEDTAVYYCAKGRYTVNYYYGMDVWGQGTTVTVSSGGGGSGGGGSGGGGSGGGGSDIQMTQSPSSLSASVGDRVTITCQANQDISNYLNWYQQKPGKAPKLLIYRASKLEAGVPSRFSGSGSGTDFTLTISSLQPEDFATYYCQQSSEIPYSFGQGTKLEIK | binds | no binding
